Assay results: patent publication US10632208B2, “Peptide-mediated drug delivery across epithelial barrier” (Purdue Research Foundation, priority 2017, dated 2020)

What was measured:
[1] = target: T1, Hsp60 / IKK-β (Homo sapiens, UniProt P10809); assay: Co-immunoprecipitation of Hsp60 and IKKβ from Caco-2 cell lysates; assay type: cell-based; conditions: LAP 1 μg/ml, 30 min
T1 construct: endogenous in cells; host or cells: Caco-2 (human colon carcinoma, ATCC HTB37)
Description: Caco-2 cells were treated with or without purified LAP (1 μg/mL) for 30 min, rinsed with cold PBS, and lysed in Nondiet P-40 (NP-40) lysis buffer (20 mM Tris HCl, pH 8,137 mM NaCl, 1% NP-40, 2 mM EDTA). The cell lysates were pre-cleared with 10 μl protein G agarose beads (MicroProtein Technologies) for 1 h and the lysates were incubated with 2 μg of anti-IKKβ, 2 μg of anti-Hsp60, rabbit serum or normal mouse serum overnight at 4° C. The lysates were further mixed with 20 μL protein G agarose beads for 3 h at 4° C. The beads were washed five times with 1 ml NP-40 lysis buffer. The protein precipitates were analyzed by immunoblotting, and the complexes were visualized by chemiluminescence assay.

[2] = system: Caco-2 cells; assay: Caco-2 cell viability assay (lactate dehydrogenase release); assay type: cell-based, human; conditions: Caco-2 cells treated with purified recombinant LAP
Description: Caco-2 cell viability assay. To determine Caco-2 viability, cell culture supernatants from Caco-2 cells infected with WT, lap^−, lap^−lap^+, ΔinlA and ΔinlA inlA^+ strains (MOI 50, 2 h) grown on Transwell inserts or treated with the purified recombinant LAP for 24 or 48 h were assayed for lactate dehydrogenase release (Thermo Fisher Scientific). Two controls were included for calculation of percent cytotoxicity (LDH release). Low control consisted of supernatant from untreated Caco-2 cells with no exposure to bacteria. High control was from cells treated with 0.1% Triton X-100 for one minute.

[3] = system: Caco-2 cell monolayers; assay: Apical-to-basolateral flux of paracellular marker FD4 through Caco-2 monolayers; assay type: cell-based, human; conditions: LAP 1 μg/mL, over a 72-h period; TNF-α 10 ng/mL positive control
Description: To determine the effect of LAP on Caco-2 permeability at specified time points (0, 24, 48 and 72 h) following incubation with recombinant purified LAP, 100 μl of FD4 (1 mg/mL in DMEM) was added to the apical side and the fluorescence readings (Em: 485 nm; Ex: 520 nm; Spectramax, Molecular Devices) for the basal medium (100 μl) were measured. Human TNF-α (10 ng/mL, R&D Systems) was added to both apical and basal sides and used as a positive control.

[4] = system: Caco-2 cell monolayers; assay: Transepithelial electrical resistance (TEER) of Caco-2 monolayers on Transwell inserts; assay type: cell-based, human

T1 sequence (P10809 27-573): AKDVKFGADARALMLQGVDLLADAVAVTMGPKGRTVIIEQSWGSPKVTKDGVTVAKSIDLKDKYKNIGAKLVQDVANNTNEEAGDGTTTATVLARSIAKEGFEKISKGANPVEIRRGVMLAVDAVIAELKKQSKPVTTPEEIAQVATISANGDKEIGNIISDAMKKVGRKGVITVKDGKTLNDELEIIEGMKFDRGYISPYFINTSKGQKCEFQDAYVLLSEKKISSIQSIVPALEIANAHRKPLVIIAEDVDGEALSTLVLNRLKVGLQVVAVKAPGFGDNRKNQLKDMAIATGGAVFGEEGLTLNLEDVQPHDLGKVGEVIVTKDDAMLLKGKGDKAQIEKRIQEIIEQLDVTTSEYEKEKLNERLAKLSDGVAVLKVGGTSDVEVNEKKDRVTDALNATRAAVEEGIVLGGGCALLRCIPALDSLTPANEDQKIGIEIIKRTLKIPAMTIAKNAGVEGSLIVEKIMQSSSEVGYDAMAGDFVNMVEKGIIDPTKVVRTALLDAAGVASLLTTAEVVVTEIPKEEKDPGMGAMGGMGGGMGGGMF

B1: LAP: Listeria adhesion protein, alcohol acetaldehyde dehydrogenase of Listeria monocytogenes, 866 aa, 94 kDa; recombinant, histidine-tagged form SEQ ID NO: 10 (protein)
chain: MAIKENAAQEVLEVQKVIDRLADNGQKALKAFESYNQEQVDNIVHAMALAGLDQHMPLAKLAVEETGRGLYEDKCIKNIFATEYIWNNIKNNKTVGVINEDVQTGVIEIAEPVGVVAGVTPVTNPTSTTLFKAIIAIKTRNPIIFAFHPSAQRCSSAAAKVVYDAAIAAGAPEHCIQWVEKPSLEATKQLMNHDKVALVLATGGAGMVKSAYSTGKPALGVGPGNVPAYIDKTAKIKRSVNDIILSKSFDQGMICASEQAVIVDKEVAKEVKAEMEANKCYFVKGAEFKKLESYVINPEKGTLNPDVVGKSPAWIANQAGFKVPEDTKILVAEIKGVGDKYPLSHEKLSPVLAFIEAANQAEAFDRCEEMLVYGGLGHSAVIHSTDKEVQKAFGIRMKACRIIVNAPSAQGGIGDIYNGFIPSLTLGCGSYGKNSVSQNVSATNLLNVKRIADRRNNMQWFKLPPKIFFEKYSTQYLQKMEGVERVFIVTDPGMGSFKYVDVVIEHLKKRGNDVAYQVFADVEPDPSDVTVYKGAELMKDFKPDTIIALGGGSAMDAAKGMWLFYEHPEASFFGLKQKFLDIRKRTFKYPKLGGKAKFVAIPTTSGTGSEVTPFAVITDKENNIKYPLADYELTPDVAIVDAQYVTTVPAHITADTGMDVLTHAIESYVSVMASDYTRGLSIRAIELVFENLRESVLTGDPDAREKMHNASALAGMAFANAFLGINHSLAHKIGPEFHIPHGRANAILMPHVIRYNALKPKKHALFPRYESFRADEDYARISRIIGFPAATTEEGVKSLVDEIIKLGKDVGIDMSLKGQNVAKKDLDAVVDTLADRAFMDQCTTANPKQPLVSELKEIYLEAYKGV
modifications: Listeria monocytogenes
interaction of Hsp60 with IKK-β [1]: Hsp60 co-precipitation
cytopathic or cytotoxic effects (LDH assay) [2]: without causing any cytopathic or cytotoxic effects
FD4 permeability [3]: significant increase in FD4 permeability equivalent to TNF-α
LAP concentration giving maximum reduction in TEER ([4]; apical treatment, 1-1000 ng/mL, 48-h period): 500 to 1000 ng/mL
reduction in TEER ([4]; purified recombinant LAP added to both the basolateral and apical compartments): 25±2%
reduction in TEER ([4]; purified recombinant LAP added to the apical compartment): 12±1%
reduction in TEER ([4]; purified recombinant LAP added to the basolateral compartment): 27±1%
